Measured values as given in article PMC6013234, “DENR–MCTS1 heterodimerization and tRNA recruitment are required for translation reinitiation” (PLoS Biology, 2018).

Target: T1, untagged full-length WT MCTS1 (human, UniProt Q9ULC4 1-181)
T1 construct: MCTS1, human, ORF in pETDuet under its own T7 promotor, untagged; also called MCT-1; source: E. coli BL21 (DE3), coexpressed with HIS-tagged DENR variants; in lysate for the pull-down, co-purified (NiNTA, SEC) for crystallization
T1 sequence (looked up): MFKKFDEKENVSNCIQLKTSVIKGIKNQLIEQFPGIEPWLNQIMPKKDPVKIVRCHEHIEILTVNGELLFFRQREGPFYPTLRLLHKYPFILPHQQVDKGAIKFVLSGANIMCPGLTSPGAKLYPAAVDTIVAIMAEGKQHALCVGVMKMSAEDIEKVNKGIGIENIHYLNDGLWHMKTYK
Test: pull-down; N-terminally HIS-tagged DENR variants or fragments coexpressed with untagged MCTS1 in E. coli; DENR purified over a nickel column, copurifying MCTS1 detected in the eluate
Details: partners not purified

B1: NHis6-tagged DENR aas 24–51 (domain or fragment, human, UniProt O43583 24-51, looked up)
chain: DADYPLRVLYCGVCSLPTEYCEYMPDVA
notes: DENR, human, residues 24-51; also called DENR(aa24–51); DENR peptide; source: E. coli BL21 (DE3), coexpressed with untagged MCTS1; in lysate for the pull-down, purified (NiNTA, SEC) for crystallization; not shown: His6, N-terminal, kept
Does B1 bind?
Result: binds
